Results as given in patent publication US20190315864A1 (SUZHOU ALPHAMAB, published 2019).

Columns and labels:
CTLA4-Fc fusion protein [1] = target: T1, CTLA4-Fc fusion protein (human, biotinylated where used as CTLA4-Fc-Biotin (Examples 5.1-5.3)); assay: competitive ELISA, CTLA4-Fc coated, VHH series with 250 ng/mL CD80-Fc-Biotin
T1 construct: expressed in HEK293 cells; also called human CTLA4-Fc protein; CTLA4-Fc antigen protein
Protocol: (§1) SA-HRP (purchased from Sigma) was added and allowed to react for 1 hour at room temperature. After adding chromogenic solution, absorbance was read at 405 nm wavelength.

CTLA4-Fc fusion protein [2] = target: T1, CTLA4-Fc fusion protein; assay: ELISA OD ratio, value equals OD(CTLA4)/OD(Fc)
Protocol: (§2) Plates were coated with CTLA4-Fc fusion protein overnight at 4° C. and 10 ng of the heavy chain single-domain antibody obtained in Example 2.1 (the control was a single domain antibody not binding to the CTLA4-Fc protein) was added to each well and allowed to react for 1 hour at room temperature. After washing, primary antibody anti-His tag antibody (purchased from Beijing Kangwei Century Biotechnology Co., Ltd.) was added and reacted for 1 hour at room temperature. After washing, a secondary goat anti-mouse horseradish peroxidase-labeled antibody (Yiqiao Shenzhou, Cat: SSA007200) was added and reacted for 1 hour at room temperature. After washing, chromogenic agent was added and the absorbance was read at 405 nm.
(§3) Plates were coated with Fc protein overnight at 4° C. and 10 ng of the heavy chain single domain antibody obtained in Example 2.1 was added to each well (control was a single domain antibody against other unrelated targets) and allowed to react for 1 hour at room temperature. After washing, an rabbit anti-human Fc antibody (purchased from Shanghai Pu Xin Biotechnology Co., Ltd.) was added and reacted for 1 hour at room temperature. After washing, goat anti-rabbit horseradish peroxidase labeled antibody (purchased from Shanghai Pu Xin Biotechnology Co., Ltd.) was added and reacted at room temperature for 1 hour. After washing, chromogenic agent was added and the absorbance was read at 405 nm.

CTLA4-Fc fusion protein [3] = target: T1, CTLA4-Fc fusion protein; assay: ELISA, VHH coated 0.5 µg/well, dilution series of CTLA4-Fc, anti-human IgG-Fc HRP; antibody No. C27
Protocol: (§4) The plates were coated with the obtained CTLA4 heavy chain single-domain antibody at 0.5 μg/well overnight at 4° C. followed by addition of a gradient dilution series of CTLA4-Fc fusion protein and allowed to react for 1 hour at room temperature. After washing, goat anti-human IgG-Fc horseradish peroxidase labeled antibody (lakepharma) was added and allowed to react for 1 hour at room temperature. After washing, horseradish peroxidase c chromogenic solution was added and the absorbance was read at a wavelength of 405 nm.

CTLA4-Fc fusion protein [4] = target: T1, CTLA4-Fc fusion protein; assay: ELISA OD ratio, value equals OD(CTLA4)/OD(blank)
Protocol: as §2

Mouse CTLA4-Fc protein [5] = target: T2, Mouse CTLA4-Fc protein (mouse, biotinylated (mCTLA4-Fc-Biotin)); assay: ELISA, VHH coated 0.5 µg/well, mCTLA4-Fc-Biotin, SA-HRP
T2 construct: also called mCTLA4-Fc-Biotin; mouse CTLA4-Fc fusion protein
Protocol: (§5) Thereafter, SA-HRP (purchased from Sigma) was added, and the mixture was reacted at room temperature for 1.5 hours. After washing, chromogenic agent was added and the absorbance was read at 405 nm.

Fc protein = target: T3, Fc protein; assay: ELISA, Fc protein coated, 10 ng VHH/well
T3 construct: Counter-screen for the Fc part of CTLA4-Fc
Protocol: as §3

CTLA4-Fc fusion protein [6] = target: T1, CTLA4-Fc fusion protein; assay: ELISA, CTLA4-Fc coated, 10 ng VHH/well
Protocol: as §2

CTLA4-Fc fusion protein [7] = target: T1, CTLA4-Fc fusion protein; assay: competitive ELISA: CD80-Fc-Biotin signal on coated CTLA4-Fc with 500 ng VHH/well; competitor CD80-Fc-Biotin
Protocol: as §1

Mouse CTLA4-Fc protein [8] = target: T2, Mouse CTLA4-Fc protein; assay: ELISA, VHH coated 0.5 µg/well, mouse CTLA4-Fc (biotinylated), SA-HRP; blank 0.027
Protocol: as §5

CTLA4-Fc fusion protein [9] = target: T1, CTLA4-Fc fusion protein; assay: ELISA, VHH coated 0.5 µg/well, dilution series of CTLA4-Fc, anti-human IgG-Fc HRP; antibody No. C1
Protocol: as §4

CTLA4-Fc fusion protein [10] = target: T1, CTLA4-Fc fusion protein; assay: ELISA, VHH coated 0.5 µg/well, dilution series of CTLA4-Fc, anti-human IgG-Fc HRP; antibody No. 145 (printed as No. 14)
Protocol: as §4

CTLA4-Fc fusion protein [11] = target: T1, CTLA4-Fc fusion protein; assay: ELISA, VHH coated 0.5 µg/well, dilution series of CTLA4-Fc, anti-human IgG-Fc HRP; antibody No. 155
Protocol: as §4

B1: CTLA4 heavy chain single domain antibody No. C27 (VHH)
VHH: QVQLQESGGGSVQAGGSLRLSCAASGYIYSAYCMGWFRQAPGKERVGVAAISIGGGSTYYADSVKGRFTISQDNAKNTLYLQMNSLKPEDTAMYYCAADVIPTETCLGGSWSGPFGYWGQGTQVTVSS
notes: Camel VHH expressed in E. coli (PET32b), nickel-purified
CTLA4-Fc fusion protein [1]
  IC50: ~0.731 µg/mL
CTLA4-Fc fusion protein [2]
  ODa/OD blank: 26.7
CTLA4-Fc fusion protein [3]
  EC50: ~0.093 µg/mL
CTLA4-Fc fusion protein [4]
  ODa/ODb: 46.8
Mouse CTLA4-Fc protein [5]
  binding result: no binding
Fc protein
  OD (against Fc): 0.049 OD405
CTLA4-Fc fusion protein [6]
  OD (against CTLA4): 1.31 OD405
CTLA4-Fc fusion protein [7]
  OD: 0.04 OD405
Mouse CTLA4-Fc protein [8]
  OD (against mouse CTLA4): 0.021 OD405

B2: CTLA4 heavy chain single domain antibody No. C1 (VHH)
VHH: QVQLQESGGGSVQAGGSLGLSCAASGYIYSAYCMGWFRQAPGKEREGVAAIYLGGGSTYYADSVKGRFTISQDIAKNTLYLQMNSLKPEDTAMYSCAADVIPTETCLGGSWSGPFGYWGQGTQVTVSS
notes: Camel VHH expressed in E. coli (PET32b), nickel-purified, detected by anti-His tag antibody
CTLA4-Fc fusion protein [1]
  IC50: 0.852 µg/mL
CTLA4-Fc fusion protein [2]
  ODa/OD blank: 22.7
CTLA4-Fc fusion protein [4]
  ODa/ODb: 42.9
Mouse CTLA4-Fc protein [5]
  binding result: no binding
CTLA4-Fc fusion protein [9]
  EC50: ~0.123 µg/mL
Fc protein
  OD (against Fc): 0.053 OD405
CTLA4-Fc fusion protein [6]
  OD (against CTLA4): 1.2 OD405
CTLA4-Fc fusion protein [7]
  OD: 0.054 OD405
Mouse CTLA4-Fc protein [8]
  OD (against mouse CTLA4): 0.042 OD405

B3: CTLA4 heavy chain single domain antibody No. 145 (VHH)
VHH: QVQLQESGGGSVQAGGSLRLSCAASGYTYSSYSMGWFRQAAGKEREGVAAIDSDGSTSYADSVKGRFTISQDNAKNTLYLQMNSLEPEDTAMYYCAATAGWYAARHALSPLFFGYWGQGTQVTVSS
notes: as for B1
CTLA4-Fc fusion protein [1]
  IC50: ~1.95 µg/mL
CTLA4-Fc fusion protein [2]
  ODa/OD blank: 22.9
CTLA4-Fc fusion protein [4]
  ODa/ODb: 53.1
Mouse CTLA4-Fc protein [5]
  binding result: no binding
Fc protein
  OD (against Fc): 0.065 OD405
CTLA4-Fc fusion protein [10]
  EC50: ~0.05 µg/mL
CTLA4-Fc fusion protein [6]
  OD (against CTLA4): 1.49 OD405
CTLA4-Fc fusion protein [7]
  OD: 0.597 OD405
Mouse CTLA4-Fc protein [8]
  OD (against mouse CTLA4): 0.026 OD405

B4: CTLA4 heavy chain single domain antibody No. 155 (VHH)
VHH: QVQLQESGGGPVQAGGSLRLSCAVSKYPYSGSCMGWFRQAPGKEREGVAAMFTGTGSTYYADSVKGRFTISQNVAKNTLDLQMNSLKPEDTAMYYCAVDLLPRSTRCLDYGLRTYNYWGQGTQVTVSS
notes: as for B1
CTLA4-Fc fusion protein [1]
  IC50: ~4.69 µg/mL
CTLA4-Fc fusion protein [2]
  ODa/OD blank: 33.8
CTLA4-Fc fusion protein [4]
  ODa/ODb: 61.6
Mouse CTLA4-Fc protein [5]
  binding result: no binding
Fc protein
  OD (against Fc): 0.051 OD405
CTLA4-Fc fusion protein [11]
  EC50: ~0.013 µg/mL
CTLA4-Fc fusion protein [6]
  OD (against CTLA4): 1.72 OD405
CTLA4-Fc fusion protein [7]
  OD: 0.746 OD405
Mouse CTLA4-Fc protein [8]
  OD (against mouse CTLA4): 0.032 OD405
